Read-outs that look alike come from different tables or passages of the source.

Experiment in all cases: two-hybrid library CCmax;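 further: natural log of median RNA to DNA barcode read ratio; higher means stronger binding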
In one test the target is T1, 4H881-AA.
T1 chain: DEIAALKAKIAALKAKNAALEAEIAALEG
The following applies: mean of both orientations.

The next test has as its target T2, 4H2949-AA.
T2 chain: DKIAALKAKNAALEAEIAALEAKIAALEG
Conditions: mean of both orientations.

Another test concerns the target T3, 4H993-AA.
T3 chain: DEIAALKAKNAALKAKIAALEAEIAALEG
Conditions: mean of both orientations.

Another test concerns the target T4, 4H342-AA.
T4 chain: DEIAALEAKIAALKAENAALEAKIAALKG
Conditions: mean of both orientations.

The target of another test is T5, 4H3627-AA.
T5 chain: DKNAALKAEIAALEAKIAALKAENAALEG
The following applies: mean of both orientations.

A further test deals with T6, 4H48-AA.
T6 chain: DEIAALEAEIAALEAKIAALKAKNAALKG
The following applies: mean of both orientations.

Another test concerns the target T7, 4H2883-AA.
T7 chain: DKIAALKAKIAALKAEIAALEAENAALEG
The following applies: mean of both orientations.

In a further test the target is T8, 4H2944-AA.
T8 chain: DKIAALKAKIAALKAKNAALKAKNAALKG
Conditions: mean of both orientations.

The target of the next test is T9, 4H906-AA.
T9 chain: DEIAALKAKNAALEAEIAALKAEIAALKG
The following applies: mean of both orientations.

Another test has as its target T10, 4H3921-AA.
T10 chain: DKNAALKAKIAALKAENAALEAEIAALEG
The following applies: mean of both orientations.

In the next test the target is T11, 4H3112-AA.
T11 chain: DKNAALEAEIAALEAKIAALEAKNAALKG
Conditions: mean of both orientations.

In another test the target is T12, 4H3427-AA.
T12 chain: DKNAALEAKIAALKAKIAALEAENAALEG
Conditions: mean of both orientations.

The target in another test is T13, 4H3844-AA.
T13 chain: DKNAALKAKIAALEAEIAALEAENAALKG
Conditions: mean of both orientations.

A further test concerns the target T14, 4H429-AA.
T14 chain: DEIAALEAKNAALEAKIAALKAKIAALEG
Conditions: mean of both orientations.

The next test addresses T15, 4H780-AA.
T15 chain: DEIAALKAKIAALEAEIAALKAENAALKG
Conditions: mean of both orientations.

For another test, the target named is T16, 4H2837-AA.
T16 chain: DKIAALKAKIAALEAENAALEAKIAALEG
Conditions: mean of both orientations.

A further test has as its target T17, 4H335-AA.
T17 chain: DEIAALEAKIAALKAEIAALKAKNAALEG
Conditions: mean of both orientations.

Another test concerns the target T18, 4H317-AA.
T18 chain: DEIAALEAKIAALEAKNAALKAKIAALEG
Conditions: mean of both orientations.

The next test concerns the target T19, 4H566-AA.
T19 chain: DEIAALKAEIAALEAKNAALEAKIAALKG
Conditions: mean of both orientations.

For a further test, the target named is T20, 4H605-AA.
T20 chain: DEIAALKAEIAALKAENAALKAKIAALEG
Conditions: mean of both orientations.

Another test deals with T21, 4H454-AA.
T21 chain: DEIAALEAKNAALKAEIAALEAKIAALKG
The following applies: mean of both orientations.

For a further test, the target named is T22, 4H3655-AA.
T22 chain: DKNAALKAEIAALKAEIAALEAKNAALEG
The following applies: mean of both orientations.

The target in the next test is T23, 4H2754-AA.
T23 chain: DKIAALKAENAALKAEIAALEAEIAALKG

For another test, the target named is T24, 4H794-AA.
T24 chain: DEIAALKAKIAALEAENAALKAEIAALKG
Conditions: mean of both orientations.

The target in another test is T25, 4H717-AA.
T25 chain: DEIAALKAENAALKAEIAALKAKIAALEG
The following applies: mean of both orientations.

In a further test the target is T26, 4H3343-AA.
T26 chain: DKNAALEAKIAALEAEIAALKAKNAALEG
The following applies: mean of both orientations.

Another test concerns the target T27, 4H678-AA.
T27 chain: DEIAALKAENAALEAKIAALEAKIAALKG
Conditions: mean of both orientations.

In a further test the target is T28, 4H3606-AA.
T28 chain: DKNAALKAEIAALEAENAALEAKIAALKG
The following applies: mean of both orientations.

The target in another test is T29, APC9096-AA.
T29 chain: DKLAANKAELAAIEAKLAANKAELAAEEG

The target in the next test is T30, APC9319-AA.
T30 chain: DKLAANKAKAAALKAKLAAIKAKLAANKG
The following applies: mean of both orientations.

A further test deals with T31, 4H697-AA.
T31 chain: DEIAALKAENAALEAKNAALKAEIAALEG
Conditions: mean of both orientations.

A further test concerns the target T32, 4H3588-AA.
T32 chain: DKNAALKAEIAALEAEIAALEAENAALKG
The following applies: mean of both orientations.

For a further test, the target named is T33, 4H982-AA.
T33 chain: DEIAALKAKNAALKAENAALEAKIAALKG
The following applies: mean of both orientations.

The target of a further test is T34, 4H3631-AA.
T34 chain: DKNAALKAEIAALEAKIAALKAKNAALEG
Conditions: mean of both orientations.

Another test deals with T35, 4H3718-AA.
T35 chain: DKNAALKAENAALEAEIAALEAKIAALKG
Conditions: mean of both orientations.

The target in another test is T36, 4H3697-AA.
T36 chain: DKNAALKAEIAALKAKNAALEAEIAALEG
The following applies: mean of both orientations.

In a further test the target is T37, 4H3413-AA.
T37 chain: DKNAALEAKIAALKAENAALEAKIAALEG
The following applies: mean of both orientations.

The target in another test is T38, 4H3865-AA.
T38 chain: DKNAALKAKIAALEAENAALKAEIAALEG
Conditions: mean of both orientations.

In the next test the target is T39, 4H384-AA.
T39 chain: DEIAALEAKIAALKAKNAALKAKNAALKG
The following applies: mean of both orientations.

The target in another test is T40, 4H340-AA.
T40 chain: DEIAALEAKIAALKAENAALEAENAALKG

The next test concerns the target T41, APC8910-AA.
T41 chain: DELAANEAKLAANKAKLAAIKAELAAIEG

B1: 4H2754-AA (peptide)
chain: DKIAALKAENAALKAEIAALEAEIAALKG
On to B1, for which the interaction score with 4H881-AA is 1.13; with 4H2949-AA, -1.05; with 4H993-AA it was 1.43; with 4H342-AA, 0.684; in the test with 4H3627-AA, -1.36; with 4H48-AA it was -1.2. The interaction score with 4H2883-AA was -0.999; in the test with 4H2944-AA it was -1.87; with 4H906-AA, -0.0753; with 4H3921-AA, -0.732; with 4H3112-AA it was -1.52; with 4H3427-AA, -1.7. The interaction score in the test with 4H3844-AA was -1.53; in the test with 4H429-AA, 0.608; in the test with 4H780-AA, -1.74; in the test with 4H2837-AA it was -0.727; in the test with 4H335-AA it was -0.745; with 4H317-AA, -1.23. The interaction score is -1.09 with 4H566-AA; -1.51 in the test with 4H605-AA; 2.24 with 4H454-AA; -1.51 in the test with 4H3655-AA; 2.15 with 4H2754-AA; -1.89 with 4H794-AA. The interaction score was 0.757 with 4H717-AA, -1.26 in the test with 4H3343-AA, 1.82 in the test with 4H678-AA and 0.688 in the test with 4H3606-AA.

B2: APC9096-AA (peptide)
chain: DKLAANKAELAAIEAKLAANKAELAAEEG
As for B2, the interaction score in the test with APC9096-AA was -2.06; with APC9319-AA, -1.81.

B3: 4H340-AA (peptide)
chain: DEIAALEAKIAALKAENAALEAENAALKG
With B3, the interaction score was -1.32 in the test with 4H697-AA; -0.126 in the test with 4H3588-AA; -1.24 with 4H982-AA; -0.0653 with 4H3631-AA; -0.983 with 4H3718-AA; -1.98 with 4H3697-AA. For the same molecule, the interaction score with 4H3413-AA was -1.52; in the test with 4H3865-AA it was -1.26; with 4H384-AA, 1.51; in the test with 4H340-AA, 0.807; with 4H3606-AA, -0.46.

B4: APC8910-AA (peptide)
chain: DELAANEAKLAANKAKLAAIKAELAAIEG
As to B4, the interaction score was -2.88 in the test with APC8910-AA, -2.09 in the test with APC9096-AA (mean of both orientations) and -2.07 in the test with APC9319-AA.

(Values after article PMC10397247.)
